Measurements as given in article PMC3712289 (Nature structural & molecular biology, 2013).

T1: Rpt5 (S. cerevisiae, UniProt P33297 1-434)
T1 sequence (looked up): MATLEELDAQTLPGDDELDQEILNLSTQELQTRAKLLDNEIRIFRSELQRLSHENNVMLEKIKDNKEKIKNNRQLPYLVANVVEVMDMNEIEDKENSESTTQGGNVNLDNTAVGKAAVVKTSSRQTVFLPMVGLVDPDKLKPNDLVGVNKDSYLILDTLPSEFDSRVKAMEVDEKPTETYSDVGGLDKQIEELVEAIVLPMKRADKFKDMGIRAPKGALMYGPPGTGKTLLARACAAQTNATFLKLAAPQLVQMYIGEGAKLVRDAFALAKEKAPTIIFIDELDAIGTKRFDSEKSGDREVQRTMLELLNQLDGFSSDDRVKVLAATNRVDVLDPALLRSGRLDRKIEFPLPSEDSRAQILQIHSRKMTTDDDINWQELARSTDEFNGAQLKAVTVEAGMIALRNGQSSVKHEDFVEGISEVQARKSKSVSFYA

T2: Rpt4 (S. cerevisiae, UniProt P53549 1-437)
T2 sequence (looked up): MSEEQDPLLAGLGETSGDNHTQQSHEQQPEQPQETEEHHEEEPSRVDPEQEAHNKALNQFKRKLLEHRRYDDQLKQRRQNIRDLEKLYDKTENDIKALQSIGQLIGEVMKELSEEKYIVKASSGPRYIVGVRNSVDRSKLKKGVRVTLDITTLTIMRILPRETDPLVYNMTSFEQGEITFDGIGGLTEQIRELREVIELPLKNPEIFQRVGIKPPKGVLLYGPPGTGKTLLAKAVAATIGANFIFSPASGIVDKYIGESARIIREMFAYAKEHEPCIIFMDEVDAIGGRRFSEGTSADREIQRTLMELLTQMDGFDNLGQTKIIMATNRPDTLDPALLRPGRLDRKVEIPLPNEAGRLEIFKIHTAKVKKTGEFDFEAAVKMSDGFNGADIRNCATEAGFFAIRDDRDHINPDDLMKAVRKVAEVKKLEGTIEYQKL

T3: Rpn5 (S. cerevisiae, UniProt Q12250 1-445)
T3 sequence (looked up): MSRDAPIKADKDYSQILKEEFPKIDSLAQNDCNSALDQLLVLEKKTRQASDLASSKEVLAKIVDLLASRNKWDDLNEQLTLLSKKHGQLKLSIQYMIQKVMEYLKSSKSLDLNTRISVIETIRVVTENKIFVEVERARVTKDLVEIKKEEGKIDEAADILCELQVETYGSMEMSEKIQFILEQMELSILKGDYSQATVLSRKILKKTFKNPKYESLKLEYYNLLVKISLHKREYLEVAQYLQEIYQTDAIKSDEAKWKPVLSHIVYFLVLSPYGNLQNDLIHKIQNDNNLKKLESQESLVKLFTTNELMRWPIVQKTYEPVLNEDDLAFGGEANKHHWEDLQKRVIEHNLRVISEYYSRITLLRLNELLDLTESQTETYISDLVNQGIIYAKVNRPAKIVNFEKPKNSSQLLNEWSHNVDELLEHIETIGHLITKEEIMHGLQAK

T4: Rpn7 (S. cerevisiae, UniProt Q06103 1-429)
T4 sequence (looked up): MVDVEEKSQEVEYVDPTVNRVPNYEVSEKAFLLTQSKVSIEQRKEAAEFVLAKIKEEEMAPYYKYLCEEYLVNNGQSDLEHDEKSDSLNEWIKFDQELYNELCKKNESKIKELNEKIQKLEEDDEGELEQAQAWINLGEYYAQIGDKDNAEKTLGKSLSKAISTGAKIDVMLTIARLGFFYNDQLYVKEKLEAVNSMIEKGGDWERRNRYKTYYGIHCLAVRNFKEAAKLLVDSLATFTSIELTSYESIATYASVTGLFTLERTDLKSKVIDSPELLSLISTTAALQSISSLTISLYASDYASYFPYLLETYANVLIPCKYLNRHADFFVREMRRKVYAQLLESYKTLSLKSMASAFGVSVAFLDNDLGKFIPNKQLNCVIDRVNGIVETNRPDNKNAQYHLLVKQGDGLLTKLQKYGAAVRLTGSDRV

T5: Rpn6 (S. cerevisiae, UniProt Q12377 1-434)
T5 sequence (looked up): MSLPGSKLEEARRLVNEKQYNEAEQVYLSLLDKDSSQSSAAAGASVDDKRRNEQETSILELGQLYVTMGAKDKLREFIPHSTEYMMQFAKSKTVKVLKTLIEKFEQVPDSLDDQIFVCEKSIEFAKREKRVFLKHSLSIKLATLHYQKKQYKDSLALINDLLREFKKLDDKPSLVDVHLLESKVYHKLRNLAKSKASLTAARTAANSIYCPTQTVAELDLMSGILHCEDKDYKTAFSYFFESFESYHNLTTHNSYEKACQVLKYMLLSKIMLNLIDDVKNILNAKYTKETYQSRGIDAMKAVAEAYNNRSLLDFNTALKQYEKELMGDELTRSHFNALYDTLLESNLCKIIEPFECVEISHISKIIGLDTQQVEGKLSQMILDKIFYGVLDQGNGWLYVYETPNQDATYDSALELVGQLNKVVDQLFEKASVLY


Assays:
Test in all cases: cryo-EM structure
Rpt5 = target: T1, Rpt5
Rpt4 = target: T2, Rpt4
Rpn5 = target: T3, Rpn5
Rpn7 = target: T4, Rpn7
Rpn6 = target: T5, Rpn6

| binding result (Rpt5) | binding result (Rpt4) | binding result (Rpn5) | binding result (Rpn7) | binding result (Rpn6) | Binder |
| --- | --- | --- | --- | --- | --- |
| binds | binds |  |  |  | Rpn10 (natural protein, S. cerevisiae, UniProt P38886 1-268, looked up) MVLEATVLVIDNSEYSRNGDFPRTRFEAQIDSVEFIFQAKRNSNPENTVGLISGAGANPRVLSTFTAEFGKILAGLHDTQIEGKLHMATALQIAQLTLKHRQNKVQHQRIVAFVCSPISDSRDELIRLAKTLKKNNVAVDIINFGEIEQNTELLDEFIAAVNNPQEETSHLLTVTPGPRLLYENIASSPIILEEGSSGMGAFGGSGGDSDANGTFMDFGVDPSMDPELAMALRLSMEEEQQRQERLRQQQQQQDQPEQSEQPEQHQDK |
|  |  | binds | binds | binds | Rpt3 (natural protein, S. cerevisiae, UniProt P33298 1-428, looked up) MEELGIVTPVEKAVEEKPAVKSYASLLAQLNGTVNNNSALSNVNSDIYFKLKKLEKEYELLTLQEDYIKDEQRHLKRELKRAQEEVKRIQSVPLVIGQFLEPIDQNTGIVSSTTGMSYVVRILSTLDRELLKPSMSVALHRHSNALVDILPPDSDSSISVMGENEKPDVTYADVGGLDMQKQEIREAVELPLVQADLYEQIGIDPPRGVLLYGPPGTGKTMLVKAVANSTKAAFIRVNGSEFVHKYLGEGPRMVRDVFRLARENAPSIIFIDEVDSIATKRFDAQTGSDREVQRILIELLTQMDGFDQSTNVKVIMATNRADTLDPALLRPGRLDRKIEFPSLRDRRERRLIFGTIASKMSLAPEADLDSLIIRNDSLSGAVIAAIMQEAGLRAVRKNRYVILQSDLEEAYATQVKTDNTVDKFDFYK |
|  |  |  | binds |  | Rpt6 (natural protein, S. cerevisiae, UniProt Q01939 1-405, looked up) MTAAVTSSNIVLETHESGIKPYFEQKIQETELKIRSKTENVRRLEAQRNALNDKVRFIKDELRLLQEPGSYVGEVIKIVSDKKVLVKVQPEGKYIVDVAKDINVKDLKASQRVCLRSDSYMLHKVLENKADPLVSLMMVEKVPDSTYDMVGGLTKQIKEIKEVIELPVKHPELFESLGIAQPKGVILYGPPGTGKTLLARAVAHHTDCKFIRVSGAELVQKYIGEGSRMVRELFVMAREHAPSIIFMDEIDSIGSTRVEGSGGGDSEVQRTMLELLNQLDGFETSKNIKIIMATNRLDILDPALLRPGRIDRKIEFPPPSVAARAEILRIHSRKMNLTRGINLRKVAEKMNGCSGADVKGVCTEAGMYALRERRIHVTQEDFELAVGKVMNKNQETAISVAKLFK |
